Source: patent US20180244758A1 (MAPP BIOPHARMACEUTICAL, published 2018)

Experiments:
Experiment in all cases: cell-based or functional assay
[1] = biological target: T1, TAFV GP on VSV pseudotype particles (Tai Forest virus (TAFV), UniProt Q66810 33-676)
T1 sequence: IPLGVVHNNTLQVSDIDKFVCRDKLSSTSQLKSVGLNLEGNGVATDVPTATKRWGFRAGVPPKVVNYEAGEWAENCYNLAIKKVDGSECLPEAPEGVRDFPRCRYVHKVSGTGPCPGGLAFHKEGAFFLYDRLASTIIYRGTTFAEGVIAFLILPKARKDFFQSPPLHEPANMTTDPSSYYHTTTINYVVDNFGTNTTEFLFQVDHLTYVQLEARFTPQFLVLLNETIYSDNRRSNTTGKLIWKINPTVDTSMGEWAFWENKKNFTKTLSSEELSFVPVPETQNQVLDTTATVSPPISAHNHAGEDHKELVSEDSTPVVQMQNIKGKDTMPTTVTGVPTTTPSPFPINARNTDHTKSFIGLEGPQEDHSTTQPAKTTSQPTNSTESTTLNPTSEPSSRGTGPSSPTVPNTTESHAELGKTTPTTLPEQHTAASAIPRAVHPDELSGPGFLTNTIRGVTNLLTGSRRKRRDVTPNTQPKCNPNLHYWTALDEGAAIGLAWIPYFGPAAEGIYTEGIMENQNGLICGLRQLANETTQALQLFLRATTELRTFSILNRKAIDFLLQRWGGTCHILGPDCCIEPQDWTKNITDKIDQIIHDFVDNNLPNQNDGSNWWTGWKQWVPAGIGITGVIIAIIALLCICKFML

[2] = biological target: T2, EBOV GP on rVSV particles (Ebola virus (EBOV), UniProt Q05320 33-676)
T2 sequence: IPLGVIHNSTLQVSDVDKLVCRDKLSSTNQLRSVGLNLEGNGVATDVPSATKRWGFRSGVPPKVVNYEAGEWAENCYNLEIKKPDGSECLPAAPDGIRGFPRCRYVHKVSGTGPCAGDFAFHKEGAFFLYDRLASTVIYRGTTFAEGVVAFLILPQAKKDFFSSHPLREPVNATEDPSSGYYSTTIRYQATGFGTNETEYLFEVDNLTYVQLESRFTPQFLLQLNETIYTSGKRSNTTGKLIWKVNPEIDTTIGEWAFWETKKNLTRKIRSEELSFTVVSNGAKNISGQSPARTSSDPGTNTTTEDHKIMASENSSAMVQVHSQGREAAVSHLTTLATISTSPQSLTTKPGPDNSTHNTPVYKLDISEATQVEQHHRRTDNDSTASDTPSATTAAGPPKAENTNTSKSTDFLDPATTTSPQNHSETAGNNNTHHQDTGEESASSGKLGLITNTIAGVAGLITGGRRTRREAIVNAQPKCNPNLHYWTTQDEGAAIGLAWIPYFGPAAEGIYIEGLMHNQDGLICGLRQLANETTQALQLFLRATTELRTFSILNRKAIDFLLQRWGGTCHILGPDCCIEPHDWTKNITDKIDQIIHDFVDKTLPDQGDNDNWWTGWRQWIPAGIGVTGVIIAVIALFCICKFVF

[3] = biological target: T3, RESTV GP on rVSV particles (Reston virus (RESTV), UniProt Q66799 34-677)
T3 sequence: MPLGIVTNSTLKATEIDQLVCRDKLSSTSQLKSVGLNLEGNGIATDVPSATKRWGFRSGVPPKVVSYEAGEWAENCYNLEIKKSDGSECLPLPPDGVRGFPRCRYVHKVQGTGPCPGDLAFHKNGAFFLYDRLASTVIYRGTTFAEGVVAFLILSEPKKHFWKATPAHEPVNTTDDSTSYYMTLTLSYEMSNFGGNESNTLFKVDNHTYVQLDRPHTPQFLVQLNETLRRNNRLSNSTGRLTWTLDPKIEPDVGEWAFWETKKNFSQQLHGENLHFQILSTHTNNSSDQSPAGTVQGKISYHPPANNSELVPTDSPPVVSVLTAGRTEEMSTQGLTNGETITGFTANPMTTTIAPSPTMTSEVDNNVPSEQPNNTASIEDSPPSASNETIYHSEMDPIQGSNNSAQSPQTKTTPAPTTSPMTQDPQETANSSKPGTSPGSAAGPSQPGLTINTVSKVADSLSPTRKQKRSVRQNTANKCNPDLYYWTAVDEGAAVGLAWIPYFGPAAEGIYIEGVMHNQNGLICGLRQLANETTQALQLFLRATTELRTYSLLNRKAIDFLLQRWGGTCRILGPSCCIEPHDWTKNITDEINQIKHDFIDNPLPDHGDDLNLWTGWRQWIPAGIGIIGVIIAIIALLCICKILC

[4] = biological target: BDBV GP on rVSV particles (Bundibugyo virus (BDBV))
[5] = biological target: T4, SUDV GP on rVSV particles (Sudan virus (SUDV), UniProt Q66814 33-676)
T4 sequence: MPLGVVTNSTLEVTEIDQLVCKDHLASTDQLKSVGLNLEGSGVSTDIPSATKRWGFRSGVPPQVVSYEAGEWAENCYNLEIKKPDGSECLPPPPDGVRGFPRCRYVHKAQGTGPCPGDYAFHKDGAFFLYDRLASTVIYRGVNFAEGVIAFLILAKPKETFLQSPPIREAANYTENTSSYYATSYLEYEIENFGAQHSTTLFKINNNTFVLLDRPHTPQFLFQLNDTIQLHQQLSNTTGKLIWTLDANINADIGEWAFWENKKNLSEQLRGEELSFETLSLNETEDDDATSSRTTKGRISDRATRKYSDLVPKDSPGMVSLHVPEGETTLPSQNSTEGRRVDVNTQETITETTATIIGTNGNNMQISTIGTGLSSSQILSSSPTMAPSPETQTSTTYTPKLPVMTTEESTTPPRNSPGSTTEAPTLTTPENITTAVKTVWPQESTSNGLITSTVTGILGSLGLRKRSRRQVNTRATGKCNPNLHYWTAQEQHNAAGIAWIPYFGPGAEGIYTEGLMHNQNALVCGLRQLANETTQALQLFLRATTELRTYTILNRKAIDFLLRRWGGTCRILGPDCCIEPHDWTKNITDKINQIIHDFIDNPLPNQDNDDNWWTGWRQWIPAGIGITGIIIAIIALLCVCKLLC

B1: PE-87 D99A (antibody, V domains shown)
VH: QVQLVQSGVTLVQPGGSLRVSCAASGFTFSSYAMSWVRQAPGKGLEWVSAISGLGGSTYYADSVKGRFTISRDNSKNTLYLQMNSLRAEDTAVYYCAKAHRVWAAGYHFDYWGQGALVTVSS
VL: DIVLTQSPSTLSASVGDRVTITCRASQSISSWLAWYQQKPGEAPKLLISDASSLESGVPSRFSGSGSGTEFTLTISSLQPDDFATYYCQQYYSSPTFGGGTKVEIK
- IC50 (nM), neutralization of rVSV-GP [1]: > 350 nM
- IC50 (nM), neutralization of rVSV-GP [2]: > 500 nM

B2: PE-87 H108A (antibody, V domains shown)
VH: QVQLVQSGVTLVQPGGSLRVSCAASGFTFSSYAMSWVRQAPGKGLEWVSAISGLGGSTYYADSVKGRFTISRDNSKNTLYLQMNSLRAEDTAVYYCAKDHRVWAAGYAFDYWGQGALVTVSS
VL: DIVLTQSPSTLSASVGDRVTITCRASQSISSWLAWYQQKPGEAPKLLISDASSLESGVPSRFSGSGSGTEFTLTISSLQPDDFATYYCQQYYSSPTFGGGTKVEIK
- IC50 (nM), neutralization of rVSV-GP [3]: 0.5 nM
- IC50 (nM), neutralization of rVSV-GP [4]: 0.6 nM
- IC50 (nM), neutralization of rVSV-GP [1]: 2.2 nM
- IC50 (nM), neutralization of rVSV-GP [5]: 2.1 nM
- IC50 (nM), neutralization of rVSV-GP [2]: 3.2 nM

B3: PE-87 R101A (antibody, V domains shown)
VH: QVQLVQSGVTLVQPGGSLRVSCAASGFTFSSYAMSWVRQAPGKGLEWVSAISGLGGSTYYADSVKGRFTISRDNSKNTLYLQMNSLRAEDTAVYYCAKDHAVWAAGYHFDYWGQGALVTVSS
VL: DIVLTQSPSTLSASVGDRVTITCRASQSISSWLAWYQQKPGEAPKLLISDASSLESGVPSRFSGSGSGTEFTLTISSLQPDDFATYYCQQYYSSPTFGGGTKVEIK
- IC50 (nM), neutralization of rVSV-GP [3]: 0.2 nM
- IC50 (nM), neutralization of rVSV-GP [4]: 0.4 nM
- IC50 (nM), neutralization of rVSV-GP [1]: 1.9 nM
- IC50 (nM), neutralization of rVSV-GP [5]: 1.5 nM
- IC50 (nM), neutralization of rVSV-GP [2]: 3.2 nM

B4: PE-87 V102A (antibody, V domains shown)
VH: QVQLVQSGVTLVQPGGSLRVSCAASGFTFSSYAMSWVRQAPGKGLEWVSAISGLGGSTYYADSVKGRFTISRDNSKNTLYLQMNSLRAEDTAVYYCAKDHRAWAAGYHFDYWGQGALVTVSS
VL: DIVLTQSPSTLSASVGDRVTITCRASQSISSWLAWYQQKPGEAPKLLISDASSLESGVPSRFSGSGSGTEFTLTISSLQPDDFATYYCQQYYSSPTFGGGTKVEIK
- IC50 (nM), neutralization of rVSV-GP [3]: 0.2 nM
- IC50 (nM), neutralization of rVSV-GP [4]: 0.2 nM
- IC50 (nM), neutralization of rVSV-GP [1]: 1 nM
- IC50 (nM), neutralization of rVSV-GP [5]: 1.1 nM
- IC50 (nM), neutralization of rVSV-GP [2]: 0.6 nM

B5: PE-87 H100A (antibody, V domains shown)
VH: QVQLVQSGVTLVQPGGSLRVSCAASGFTFSSYAMSWVRQAPGKGLEWVSAISGLGGSTYYADSVKGRFTISRDNSKNTLYLQMNSLRAEDTAVYYCAKDARVWAAGYHFDYWGQGALVTVSS
VL: DIVLTQSPSTLSASVGDRVTITCRASQSISSWLAWYQQKPGEAPKLLISDASSLESGVPSRFSGSGSGTEFTLTISSLQPDDFATYYCQQYYSSPTFGGGTKVEIK
- IC50 (nM), neutralization of rVSV-GP [3]: 0.2 nM
- IC50 (nM), neutralization of rVSV-GP [4]: 0.4 nM
- IC50 (nM), neutralization of rVSV-GP [1]: 0.8 nM
- IC50 (nM), neutralization of rVSV-GP [5]: 1 nM
- IC50 (nM), neutralization of rVSV-GP [2]: 1 nM

B6: PE-87 W103A (antibody, V domains shown)
VH: QVQLVQSGVTLVQPGGSLRVSCAASGFTFSSYAMSWVRQAPGKGLEWVSAISGLGGSTYYADSVKGRFTISRDNSKNTLYLQMNSLRAEDTAVYYCAKDHRVAAAGYHFDYWGQGALVTVSS
VL: DIVLTQSPSTLSASVGDRVTITCRASQSISSWLAWYQQKPGEAPKLLISDASSLESGVPSRFSGSGSGTEFTLTISSLQPDDFATYYCQQYYSSPTFGGGTKVEIK
- IC50 (nM), neutralization of rVSV-GP [4]: > 200 nM
- IC50 (nM), neutralization of rVSV-GP [1]: > 150 nM

B7: PE-87 F109A (antibody, V domains shown)
VH: QVQLVQSGVTLVQPGGSLRVSCAASGFTFSSYAMSWVRQAPGKGLEWVSAISGLGGSTYYADSVKGRFTISRDNSKNTLYLQMNSLRAEDTAVYYCAKDHRVWAAGYHADYWGQGALVTVSS
VL: DIVLTQSPSTLSASVGDRVTITCRASQSISSWLAWYQQKPGEAPKLLISDASSLESGVPSRFSGSGSGTEFTLTISSLQPDDFATYYCQQYYSSPTFGGGTKVEIK
- IC50 (nM), neutralization of rVSV-GP [3]: 0.4 nM
- IC50 (nM), neutralization of rVSV-GP [4]: 0.3 nM
- IC50 (nM), neutralization of rVSV-GP [1]: 2.8 nM
- IC50 (nM), neutralization of rVSV-GP [5]: 2.1 nM
- IC50 (nM), neutralization of rVSV-GP [2]: 4.2 nM

B8: PE-87 G106A (antibody, V domains shown)
VH: QVQLVQSGVTLVQPGGSLRVSCAASGFTFSSYAMSWVRQAPGKGLEWVSAISGLGGSTYYADSVKGRFTISRDNSKNTLYLQMNSLRAEDTAVYYCAKDHRVWAAAYHFDYWGQGALVTVSS
VL: DIVLTQSPSTLSASVGDRVTITCRASQSISSWLAWYQQKPGEAPKLLISDASSLESGVPSRFSGSGSGTEFTLTISSLQPDDFATYYCQQYYSSPTFGGGTKVEIK
- IC50 (nM), neutralization of rVSV-GP [3]: 0.2 nM
- IC50 (nM), neutralization of rVSV-GP [4]: 0.4 nM
- IC50 (nM), neutralization of rVSV-GP [1]: 0.8 nM
- IC50 (nM), neutralization of rVSV-GP [5]: 0.9 nM
- IC50 (nM), neutralization of rVSV-GP [2]: 0.8 nM

B9: PE-87 Y107A (antibody, V domains shown)
VH: QVQLVQSGVTLVQPGGSLRVSCAASGFTFSSYAMSWVRQAPGKGLEWVSAISGLGGSTYYADSVKGRFTISRDNSKNTLYLQMNSLRAEDTAVYYCAKDHRVWAAGAHFDYWGQGALVTVSS
VL: DIVLTQSPSTLSASVGDRVTITCRASQSISSWLAWYQQKPGEAPKLLISDASSLESGVPSRFSGSGSGTEFTLTISSLQPDDFATYYCQQYYSSPTFGGGTKVEIK
- IC50 (nM), neutralization of rVSV-GP [3]: 1.3 nM
- IC50 (nM), neutralization of rVSV-GP [4]: 0.8 nM
- IC50 (nM), neutralization of rVSV-GP [1]: 0.8 nM
- IC50 (nM), neutralization of rVSV-GP [5]: > 350 nM
- IC50 (nM), neutralization of rVSV-GP [2]: 3 nM
